Target: WT p45 Tcf1 (UniProt Q00417 1-419)
Test: EMSA

Chain of WT p45 Tcf1 (Q00417 whole entry): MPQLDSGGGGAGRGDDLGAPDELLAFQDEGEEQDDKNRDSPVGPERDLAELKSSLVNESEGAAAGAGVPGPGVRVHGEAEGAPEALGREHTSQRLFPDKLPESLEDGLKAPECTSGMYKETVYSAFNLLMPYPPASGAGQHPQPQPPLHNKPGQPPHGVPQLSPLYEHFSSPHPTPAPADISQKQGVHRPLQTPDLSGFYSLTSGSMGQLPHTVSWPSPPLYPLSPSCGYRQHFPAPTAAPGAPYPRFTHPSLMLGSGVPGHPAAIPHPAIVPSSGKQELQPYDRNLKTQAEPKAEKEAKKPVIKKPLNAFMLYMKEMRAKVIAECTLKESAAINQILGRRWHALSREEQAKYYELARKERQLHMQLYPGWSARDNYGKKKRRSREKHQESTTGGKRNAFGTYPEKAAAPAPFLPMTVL

B1: TOP probe (dsDNA)
DNA 1: GATCTAGGGCACCCTTTGAAGCTCT
DNA 2: AGAGCTTCAAAGGGTGCCCTAGATC
binding result: binds
